Measurements: publication PMC10247859, “Replisome-cohesin interactions provided by the Tof1-Csm3 and Mrc1 cohesion establishment factors” (Chromosoma, 2023)

Key:
Details in all cases: both partners purified
[1] = target: T1, cohesin tetramer complex (Smc1-Smc3-Scc1-Scc3) (S. cerevisiae (budding yeast), UniProt P32908 1-1225; P47037 1-1230; Q12158 1-566; P40541 1-1150); assay: pull-down; cohesin tetramer (200-600 nM) held on Protein A dynabeads by anti-Pk antibody (Pk tag on Smc1); 200 nM prey, 30 °C, 5 min; 25 mM HEPES-KOH pH 7.6, 100 mM potassium glutamate, 10 mM magnesium acetate, 0.12% NP-40; SDS elution, Coomassie staining
T1 construct: Smc1, cohesin subunit, budding yeast; Smc3, cohesin subunit, budding yeast; Scc1, cohesin subunit, budding yeast; Scc3, cohesin subunit, budding yeast; also called cohesin complex; source: purified as previously described (Minamino et al. 2018): IgG agarose, 3C protease cleavage; copies: + + +
T1 sequence (P32908 whole entry, chain 1 of 3): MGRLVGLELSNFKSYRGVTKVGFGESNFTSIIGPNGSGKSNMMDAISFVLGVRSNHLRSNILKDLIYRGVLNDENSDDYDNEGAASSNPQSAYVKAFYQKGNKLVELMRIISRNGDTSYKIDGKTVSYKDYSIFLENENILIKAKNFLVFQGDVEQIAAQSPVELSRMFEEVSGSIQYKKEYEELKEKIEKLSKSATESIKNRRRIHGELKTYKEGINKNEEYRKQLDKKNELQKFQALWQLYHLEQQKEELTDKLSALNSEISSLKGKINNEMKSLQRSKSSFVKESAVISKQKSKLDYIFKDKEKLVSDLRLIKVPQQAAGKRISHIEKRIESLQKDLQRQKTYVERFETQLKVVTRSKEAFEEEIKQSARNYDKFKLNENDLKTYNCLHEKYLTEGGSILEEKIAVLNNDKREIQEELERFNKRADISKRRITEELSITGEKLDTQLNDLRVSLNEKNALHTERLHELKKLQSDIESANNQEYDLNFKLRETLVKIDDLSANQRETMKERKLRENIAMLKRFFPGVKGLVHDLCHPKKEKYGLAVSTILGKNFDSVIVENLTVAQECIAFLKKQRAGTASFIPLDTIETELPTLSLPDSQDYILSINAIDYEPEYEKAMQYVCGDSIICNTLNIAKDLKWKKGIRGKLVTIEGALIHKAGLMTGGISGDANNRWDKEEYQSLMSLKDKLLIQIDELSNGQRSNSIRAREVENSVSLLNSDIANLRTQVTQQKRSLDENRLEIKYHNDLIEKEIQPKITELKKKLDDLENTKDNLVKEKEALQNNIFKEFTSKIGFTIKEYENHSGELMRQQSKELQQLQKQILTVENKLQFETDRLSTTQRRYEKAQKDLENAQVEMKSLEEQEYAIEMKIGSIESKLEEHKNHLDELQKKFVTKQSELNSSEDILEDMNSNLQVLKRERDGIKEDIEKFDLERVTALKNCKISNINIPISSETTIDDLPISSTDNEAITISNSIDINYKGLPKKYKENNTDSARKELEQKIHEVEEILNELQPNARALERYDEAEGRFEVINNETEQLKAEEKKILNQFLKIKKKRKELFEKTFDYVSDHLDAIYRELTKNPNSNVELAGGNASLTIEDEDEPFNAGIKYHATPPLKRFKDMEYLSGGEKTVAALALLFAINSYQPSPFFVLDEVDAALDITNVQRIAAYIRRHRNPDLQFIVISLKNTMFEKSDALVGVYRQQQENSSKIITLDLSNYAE
T1 sequence (P47037 whole entry, chain 2 of 3): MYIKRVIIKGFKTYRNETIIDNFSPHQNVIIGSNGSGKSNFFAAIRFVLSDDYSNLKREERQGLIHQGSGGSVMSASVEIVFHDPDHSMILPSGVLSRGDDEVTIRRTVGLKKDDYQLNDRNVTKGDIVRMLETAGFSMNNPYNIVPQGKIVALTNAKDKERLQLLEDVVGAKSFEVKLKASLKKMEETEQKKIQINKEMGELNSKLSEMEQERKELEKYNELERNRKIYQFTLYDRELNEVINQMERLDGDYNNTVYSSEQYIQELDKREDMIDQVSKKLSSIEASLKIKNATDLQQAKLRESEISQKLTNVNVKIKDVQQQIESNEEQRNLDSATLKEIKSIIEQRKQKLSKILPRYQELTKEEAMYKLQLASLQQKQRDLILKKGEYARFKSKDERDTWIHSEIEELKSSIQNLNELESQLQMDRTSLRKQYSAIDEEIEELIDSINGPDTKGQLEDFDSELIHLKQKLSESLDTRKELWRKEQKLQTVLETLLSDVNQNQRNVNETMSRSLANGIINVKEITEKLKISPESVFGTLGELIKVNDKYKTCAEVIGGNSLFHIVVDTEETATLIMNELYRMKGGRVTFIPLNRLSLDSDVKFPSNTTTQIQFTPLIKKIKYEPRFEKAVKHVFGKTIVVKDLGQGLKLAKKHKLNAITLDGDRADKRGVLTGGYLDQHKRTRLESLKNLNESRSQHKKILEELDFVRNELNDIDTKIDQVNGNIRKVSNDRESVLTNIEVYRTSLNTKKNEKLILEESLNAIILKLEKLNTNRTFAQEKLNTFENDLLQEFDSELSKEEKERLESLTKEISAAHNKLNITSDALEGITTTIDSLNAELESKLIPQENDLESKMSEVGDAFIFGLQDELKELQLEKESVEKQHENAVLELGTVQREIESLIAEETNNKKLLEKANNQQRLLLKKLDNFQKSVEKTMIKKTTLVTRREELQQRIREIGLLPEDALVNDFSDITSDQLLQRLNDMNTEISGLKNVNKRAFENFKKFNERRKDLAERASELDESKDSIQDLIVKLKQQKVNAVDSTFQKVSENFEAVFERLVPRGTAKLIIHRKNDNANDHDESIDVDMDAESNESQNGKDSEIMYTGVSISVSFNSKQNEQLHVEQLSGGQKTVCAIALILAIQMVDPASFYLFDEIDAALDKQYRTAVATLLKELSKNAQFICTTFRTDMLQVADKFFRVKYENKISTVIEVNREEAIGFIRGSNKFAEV
T1 sequence (P40541 whole entry, chain 4 of 3): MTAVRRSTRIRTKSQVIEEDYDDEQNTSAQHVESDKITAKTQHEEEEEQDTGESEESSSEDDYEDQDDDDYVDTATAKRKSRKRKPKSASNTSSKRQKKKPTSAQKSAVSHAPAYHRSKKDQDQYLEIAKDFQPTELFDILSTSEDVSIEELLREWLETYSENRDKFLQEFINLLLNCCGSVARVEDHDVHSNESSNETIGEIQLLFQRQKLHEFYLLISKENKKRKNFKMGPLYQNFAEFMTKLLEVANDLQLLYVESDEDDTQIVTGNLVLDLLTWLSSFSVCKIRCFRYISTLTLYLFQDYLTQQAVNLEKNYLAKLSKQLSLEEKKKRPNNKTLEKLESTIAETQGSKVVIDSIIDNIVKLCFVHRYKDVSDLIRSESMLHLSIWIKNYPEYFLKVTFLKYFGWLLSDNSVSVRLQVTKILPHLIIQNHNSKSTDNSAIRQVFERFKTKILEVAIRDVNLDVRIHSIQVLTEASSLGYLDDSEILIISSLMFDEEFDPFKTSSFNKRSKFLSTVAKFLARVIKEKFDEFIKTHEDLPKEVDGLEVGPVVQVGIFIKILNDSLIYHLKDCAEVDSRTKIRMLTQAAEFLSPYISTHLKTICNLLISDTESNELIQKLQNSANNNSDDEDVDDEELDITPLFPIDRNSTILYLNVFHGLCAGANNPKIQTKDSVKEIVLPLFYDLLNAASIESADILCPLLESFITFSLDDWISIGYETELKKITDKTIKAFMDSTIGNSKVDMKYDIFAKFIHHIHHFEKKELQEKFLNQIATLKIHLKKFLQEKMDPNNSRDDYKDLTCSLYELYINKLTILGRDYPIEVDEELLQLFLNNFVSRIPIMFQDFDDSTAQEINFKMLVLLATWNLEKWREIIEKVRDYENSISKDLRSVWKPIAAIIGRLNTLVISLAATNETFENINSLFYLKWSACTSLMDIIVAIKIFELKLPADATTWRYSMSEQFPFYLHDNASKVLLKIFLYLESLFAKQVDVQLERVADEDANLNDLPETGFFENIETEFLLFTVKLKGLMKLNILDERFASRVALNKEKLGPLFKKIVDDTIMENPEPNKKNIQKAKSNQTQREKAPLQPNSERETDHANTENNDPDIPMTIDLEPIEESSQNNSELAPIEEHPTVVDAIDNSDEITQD

Smc1-Smc3 dimer = target: T2, Smc1-Smc3 dimer (S. cerevisiae (budding yeast), UniProt P32908 1-1225; P47037 1-1230); assay: pull-down; Tof1-Csm3 (200-600 nM) held on calmodulin dynabeads; cohesin tetramer, trimer or Smc1-Smc3 dimer as prey; interaction buffer with 100 mM potassium glutamate; Coomassie staining; benzonase or NaCl added where indicated
T2 construct: Smc1, cohesin subunit, budding yeast; Smc3, cohesin subunit, budding yeast; also called SMC dimer; SMC dimers (Smc1-Smc3); source: purified following the same protocol as cohesin tetramers (IgG agarose, 3C protease cleavage); not shown: Protein A, C-terminal, cleaved
T2 sequence (P32908 whole entry, chain 1 of 2): as the sequence (P32908 whole entry, chain 1 of 3) above
T2 sequence (P47037 whole entry, chain 2 of 2): as the sequence (P47037 whole entry, chain 2 of 3) above

[2] = target: T3, cohesin trimer (Smc1-Smc3-Scc1) (S. cerevisiae (budding yeast), UniProt P32908 1-1225; P47037 1-1230; Q12158 1-566); assay: as above
T3 construct: Smc1, cohesin subunit, budding yeast; Smc3, cohesin subunit, budding yeast; Scc1, cohesin subunit, budding yeast; source: purified following the same protocol as cohesin tetramers (IgG agarose, 3C protease cleavage); copies: + +
T3 sequence (P32908 whole entry, chain 1 of 2): as the sequence (P32908 whole entry, chain 1 of 3) above
T3 sequence (P47037 whole entry, chain 2 of 2): as the sequence (P47037 whole entry, chain 2 of 3) above

Measured: binding result

B1: Tof1-Csm3 complex (complex, S. cerevisiae (budding yeast))
chain 1: MSADLQQGTTNAADFSLTVLRARIALLATAIGGPDYTSQIDPPPYKLGDDCLACLKDLKRWFKLVDDQQKRWDVAMAVAEYRILTDDLLPILIDWENKCSLAAKLAKNNPDHEEFRNKAYYDKIALNCLQLLVLMTWPLIVTEQSSSNQITLYGELKKHQLVYKKTILSMESGKVLRAAIRLALDVIKIDRLSRTPRDNMVLKLVLNFFRNVIAIEPGEFTINTKKSMPKKGITSIDTLPPNVSMDDISLNTVISSFHKNKVFGFLLTLTSSLSKEFDQDFINIPLLEIMFYFTKDVNQELLFPRQFETGTHSKVVNKNESSSANNIVTSAGFELSKLLQKEHQMRKNVIKHTSARHSRFGGLLSIQTPDKTRLTVSGSQALVDEKIALQKLDDSKKWNKRIIKKHQSVAAEGLPNSLLNSQTGKAIFFTESNGKHFKEFINNFIDSGFNILLHSVTNYFTTEQDRMVTLEQVEYLLFFAWFVKYQLLRSKIDNSADIKQVSEALKEVTFILVSSLLRSAYDLKNWTVTHAGMIAFNELLNLVSRTKAAQEEDSTDIEFIVSRLFSDERIQLLSNLPKIGSKYSLQFMKSCIELTHSVLKVLEQYSDDKTLVIEGKSRRQKKFNISEGDITKLIEEENVDRDEALDILTSSLRSIEVNFQKVQANYMTEPVIETYINFLERFRELEDDSIKKVFSFFHRVFVQAKEQALLFRFDLIILLREMLSPDGLDRMSRSRKYVSQFSDYFLARLKKRLKKSPAWFVGLLFPPLHNSEVGFYQRYGEYNVLNNESMYAAPASQFKPIPDEEALPPSILLDMKYGVLVSTLLDDGKTELLDQLLKHITHTLDIFKSWLTVNVNAGKETVNPPNEYFTLTGVLNNDPIFKDKDYRALLLLIGYSIPRKINEPCFLPGTVEVSDLTVSCELVKKYLSTPFETPNGLPSSSYLLRVRSEKDSFSHNEQDGWEGDDDYDYNDPYIVPDDQILSKSDAAYFKDLDNNASDKLKGTKFSKGIARSKKKDKRKRRKGEAKTNLPMFGDQDDERPQTVRERHGVFSKEFISDSEDDEDLMNPIFFENETYMRWLLDKNNGQLTEDRYIQFAKFAAERMNNGGVVTGDYTSLFGGSIPSIESIRATESSSFAPDKSLISLASHVASEMSIFDVNNNNNNQLSDDDVNSESRNSLGSSQPSNSQNMFQSEVYSRKESTKRSLEASAADESDEDEEAIRLFGKKSRVVLSQGDSDD
chain 2: MDQDFDSLLLGFNDSDSVQKDPTVPNGLDGSVVDPTIADPTAITARKRRPQVKLTAEKLLSDKGLPYVLKNAHKRIRISSKKNSYDNLSNIIQFYQLWAHELFPKAKFKDFMKICQTVGKTDPVLREYRVSLFRDEMGMSFDVGTRETGQDLERQSPMVEEHVTSAEERPIVADSFAQDKRNVNNVDYDNDEDDDIYHLSYRNRRGRVLDERGNNETVLNNVVPPKEDLDALLKTFRVQGPVGLEENEKKLLLGWLDAHRKMEKGSMTEEDVQLIQSLEEWEMNDIEGQHTHYDLLPGGDEFGVDQDELDAMKEMGF
notes: Tof1, budding yeast; Csm3, budding yeast; Held on calmodulin dynabeads when used as bait; source: purified as previously described (Yeeles et al. 2017)
binds: [1] | Smc1-Smc3 dimer | [2]
